Biological target: T1, α5β1 integrin isolated from human placental extract (human, UniProt P08648 42-1049; P05556 21-798)
T1 construct: coated on plastic wells or captured by anti-α5 antibody; also called fibronectin receptor
Assay: phage panning on coated integrin
Method: In the first panning, the integrins were coated at 5 µg per well, and the library pool was incubated for 4 hours at 25° C. in TBS buffer containing 1% bovine serum albumin and 1 mM MnCl_2 (α_5β_1, α_vβ_3) 1 mM MgCl_2 ($\alphaIIb\beta_3$) or 1 mM CaCl_2 (α_vβ_5).

T1 sequence (P08648 42-1049, chain 1 of 2): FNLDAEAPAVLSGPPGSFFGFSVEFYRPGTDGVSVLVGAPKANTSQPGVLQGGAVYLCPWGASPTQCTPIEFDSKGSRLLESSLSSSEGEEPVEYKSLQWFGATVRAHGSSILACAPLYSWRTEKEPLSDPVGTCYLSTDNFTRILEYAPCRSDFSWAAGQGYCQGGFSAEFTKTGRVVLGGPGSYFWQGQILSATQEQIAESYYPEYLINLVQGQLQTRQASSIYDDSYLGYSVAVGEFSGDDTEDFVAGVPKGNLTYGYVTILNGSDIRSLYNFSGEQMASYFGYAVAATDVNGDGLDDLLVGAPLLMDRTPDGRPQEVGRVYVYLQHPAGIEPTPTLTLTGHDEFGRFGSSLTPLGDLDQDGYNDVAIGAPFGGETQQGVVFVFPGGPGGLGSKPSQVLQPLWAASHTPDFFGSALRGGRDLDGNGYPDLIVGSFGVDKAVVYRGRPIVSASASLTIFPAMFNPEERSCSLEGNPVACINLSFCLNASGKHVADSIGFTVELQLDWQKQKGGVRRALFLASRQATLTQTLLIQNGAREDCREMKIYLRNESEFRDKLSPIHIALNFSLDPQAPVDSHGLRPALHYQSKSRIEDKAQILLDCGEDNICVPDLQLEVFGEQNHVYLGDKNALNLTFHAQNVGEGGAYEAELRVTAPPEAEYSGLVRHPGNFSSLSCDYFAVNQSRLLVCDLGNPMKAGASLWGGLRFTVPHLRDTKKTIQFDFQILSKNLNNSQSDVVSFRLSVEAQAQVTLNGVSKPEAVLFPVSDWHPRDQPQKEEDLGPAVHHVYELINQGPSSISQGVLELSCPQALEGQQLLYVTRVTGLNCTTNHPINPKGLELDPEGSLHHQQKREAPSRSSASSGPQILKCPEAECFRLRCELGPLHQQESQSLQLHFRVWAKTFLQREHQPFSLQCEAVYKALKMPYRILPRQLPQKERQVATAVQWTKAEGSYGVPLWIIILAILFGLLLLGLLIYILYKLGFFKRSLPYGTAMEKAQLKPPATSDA
T1 sequence (P05556 21-798, chain 2 of 2): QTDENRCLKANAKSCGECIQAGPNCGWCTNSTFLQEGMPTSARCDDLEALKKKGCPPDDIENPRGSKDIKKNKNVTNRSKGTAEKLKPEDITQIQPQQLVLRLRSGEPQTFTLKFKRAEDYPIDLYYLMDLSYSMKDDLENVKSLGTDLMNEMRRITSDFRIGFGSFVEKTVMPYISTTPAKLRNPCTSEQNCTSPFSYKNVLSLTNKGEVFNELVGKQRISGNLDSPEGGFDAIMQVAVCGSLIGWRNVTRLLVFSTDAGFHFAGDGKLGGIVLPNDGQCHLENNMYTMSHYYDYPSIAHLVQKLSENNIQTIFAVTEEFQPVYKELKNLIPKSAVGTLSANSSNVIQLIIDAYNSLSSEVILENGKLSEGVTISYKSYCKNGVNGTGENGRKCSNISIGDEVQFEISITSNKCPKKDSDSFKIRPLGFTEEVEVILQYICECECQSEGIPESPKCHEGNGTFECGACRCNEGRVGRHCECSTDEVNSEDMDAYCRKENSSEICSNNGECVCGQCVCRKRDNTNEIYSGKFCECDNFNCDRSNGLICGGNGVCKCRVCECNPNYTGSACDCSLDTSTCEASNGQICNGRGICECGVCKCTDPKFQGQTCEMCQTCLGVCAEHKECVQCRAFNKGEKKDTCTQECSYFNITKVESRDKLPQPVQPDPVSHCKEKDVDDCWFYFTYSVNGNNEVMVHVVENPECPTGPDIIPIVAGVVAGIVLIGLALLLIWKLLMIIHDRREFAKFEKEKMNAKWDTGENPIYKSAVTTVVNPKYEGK

| Binder | binding result |
| --- | --- |
| CRGDGYCVFF (on fuse 5 phage, fused to pIII) [CRGDGYCVFF phage] | binds |
| CLRGDGLALC (on fuse 5 phage, fused to pIII) [CLRGDGLALC phage] | binds |
| CTNVNGRSAC (on fuse 5 phage, fused to pIII) [CTNVNGRSAC phage] | binds |
| CRGDCLPTPR (on fuse 5 phage, fused to pIII) [CRGDCLPTPR phage] | binds |
| CRGDGLMCGL (on fuse 5 phage, fused to pIII) [CRGDGLMCGL phage] | binds |
| CWRGDHVMPC (on fuse 5 phage, fused to pIII) [CWRGDHVMPC phage] | binds |
| CPVRRGDGWC (on fuse 5 phage, fused to pIII) [CPVRRGDGWC phage] | binds |
| CGQGMHRLAC (on fuse 5 phage, fused to pIII) [CGQGMHRLAC phage] | binds |
| CRGDAAWC (on fuse 5 phage, fused to pIII) [CRGDAAWC phage] | binds |
| CRGDGWLC (on fuse 5 phage, fused to pIII) [CRGDGWLC phage] | binds |
| CRGDGLLC (on fuse 5 phage, fused to pIII) [CRGDGLLC phage] | binds |
| CRGDGWWC (on fuse 5 phage, fused to pIII) [CRGDGWWC phage] | binds |
| CRGDGLWC (on fuse 5 phage, fused to pIII) [CRGDGLWC phage] | binds |
| CRGDGLIC (on fuse 5 phage, fused to pIII) [CRGDGLIC phage] | binds |
| CRGDGLMC (on fuse 5 phage, fused to pIII) [CRGDGLMC phage] | binds |
| CRGDGAFC (on fuse 5 phage, fused to pIII) [CRGDGAFC phage] | binds |
| CRGDGWMC (on fuse 5 phage, fused to pIII) [CRGDGWMC phage] | binds |
| CRGDGWIC (on fuse 5 phage, fused to pIII) [CRGDGWIC phage] | binds |
| CRGDNAWC (on fuse 5 phage, fused to pIII) [CRGDNAWC phage] | binds |
| CRGDGLDC (on fuse 5 phage, fused to pIII) [CRGDGLDC phage] | binds |
| CRGDGMWC (on fuse 5 phage, fused to pIII) [CRGDGMWC phage] | binds |
| CRGDGMLC (on fuse 5 phage, fused to pIII) [CRGDGMLC phage] | binds |
| CRGDGFLC (on fuse 5 phage, fused to pIII) [CRGDGFLC phage] | binds |
| CRGDRAWC (on fuse 5 phage, fused to pIII) [CRGDRAWC phage] | binds |
| CRGDNVWC (on fuse 5 phage, fused to pIII) [CRGDNVWC phage] | binds |
| CRGDGQHC (on fuse 5 phage, fused to pIII) [CRGDGQHC phage] | binds |
| CDWRGDNQFC (on fuse 5 phage, fused to pIII) [CDWRGDNQFC phage] | binds |
| CQGMHGTPAC (on fuse 5 phage, fused to pIII) [CQGMHGTPAC phage] | binds |
| CGQRGDGFCL (on fuse 5 phage, fused to pIII) [CGQRGDGFCL phage] | binds |
| CYVNGRAWAC (on fuse 5 phage, fused to pIII) [CYVNGRAWAC phage] | binds |

— patent publication US7067619 (LA JOLLA CANCER RESEARCH FOUNDATION, dated 2006)
